This passage reports EC50 results from patent CN114539420A (SUZHOU INSTITUTE OF RESEARCH OF PSEUDO UNIV, dated 2022).

This test addresses T1, 重组人B7-H3蛋白 (recombinant human B7-H3-ECD protein, 11188-H08H, SinoBiological) (human, UniProt Q5ZPR3 29-466).
T1 construct: extracellular domain; Bought protein; The EC50 sentence says only 'human B7-H3 protein'; also called 人B7-H3重组蛋白; 重组人B7-H3-ECD蛋白
T1 sequence (looked up): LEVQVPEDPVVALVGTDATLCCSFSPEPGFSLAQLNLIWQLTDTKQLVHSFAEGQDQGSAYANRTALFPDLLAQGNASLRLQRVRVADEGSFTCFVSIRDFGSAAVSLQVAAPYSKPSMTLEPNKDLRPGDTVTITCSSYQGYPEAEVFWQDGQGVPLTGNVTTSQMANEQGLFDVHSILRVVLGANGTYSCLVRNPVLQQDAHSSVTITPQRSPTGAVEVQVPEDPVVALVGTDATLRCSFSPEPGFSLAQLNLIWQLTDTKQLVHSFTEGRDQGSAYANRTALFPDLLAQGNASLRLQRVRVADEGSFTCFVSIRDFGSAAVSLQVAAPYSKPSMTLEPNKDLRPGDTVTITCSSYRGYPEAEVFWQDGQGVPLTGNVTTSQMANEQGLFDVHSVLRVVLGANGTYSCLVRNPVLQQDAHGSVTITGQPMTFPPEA
The test can be described thus: ELISA on recombinant human B7-H3 protein (Fig. 2a, n=3).

B1: 嵌合单克隆抗体10-2#c (chimeric anti-B7-H3 monoclonal antibody) (antibody, human IgG1, V domains shown)
VH: EVQLQQSGPALVKPGTSVKISCKTSGYTFTEYIIHWVKQSHGKSLEWIGGINPNNGGTSYNQKFKGKATLTVDKSSSTAYMELRSLTSEDSAVYYCASRLAPSTAGFAYWGQGTMLTVSS
VL: DIVLTQTPAIMSASPGEKVTMTCRASSSVSYMHWYQQRSGTSPKTWIYDTSKLASGVPGRFSGSGSGTSYSLTISIMEAEDAATYYCQQWSSNPPTFGGGTKLEIK
notes: also called 抗B7-H3单克隆抗体; 嵌合抗体10-2#c
In the case of B1, the EC50 was found to be 2.22 ng/mL.
